Numbered stars: 1 amine (or outer) side, 2 acyl side, 3 side chain; on linkers, the order of the positions; unused ones are H or OH. * marks the point of attachment. C20 diacid = O=C(O)CCCCCCCCCCCCCCCCCCC(=O)*; C18 diacid = O=C(O)CCCCCCCCCCCCCCCCC(=O)*; γGlu = O=C(O)[C@H](CCC(=O)[*:2])N[*:1]
T1: human amylin 3(a) receptor (human calcitonin receptor co-expressed with RAMP-3) (human, UniProt P30988 25-474; O60896 24-148, limits assumed)
T1 sequence (looked up) 1: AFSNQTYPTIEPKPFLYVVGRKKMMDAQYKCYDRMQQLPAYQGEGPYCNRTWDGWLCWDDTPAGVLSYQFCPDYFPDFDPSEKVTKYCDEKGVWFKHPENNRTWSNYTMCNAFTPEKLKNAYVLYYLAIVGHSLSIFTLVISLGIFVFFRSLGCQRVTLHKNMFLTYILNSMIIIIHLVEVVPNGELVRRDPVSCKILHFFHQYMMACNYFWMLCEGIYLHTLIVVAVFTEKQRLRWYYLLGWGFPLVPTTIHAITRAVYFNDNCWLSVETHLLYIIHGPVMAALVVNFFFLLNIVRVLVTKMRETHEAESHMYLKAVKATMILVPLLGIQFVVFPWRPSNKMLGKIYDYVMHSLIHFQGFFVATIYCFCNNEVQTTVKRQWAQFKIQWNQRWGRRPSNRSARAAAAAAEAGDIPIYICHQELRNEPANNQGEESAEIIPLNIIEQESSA
T1 sequence (looked up) 2: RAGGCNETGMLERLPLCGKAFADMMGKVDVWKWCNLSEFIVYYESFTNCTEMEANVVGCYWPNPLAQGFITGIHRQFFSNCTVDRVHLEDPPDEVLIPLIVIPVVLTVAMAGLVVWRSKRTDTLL

T2: human calcitonin receptor (human, UniProt P30988 25-474)
T2 sequence (looked up): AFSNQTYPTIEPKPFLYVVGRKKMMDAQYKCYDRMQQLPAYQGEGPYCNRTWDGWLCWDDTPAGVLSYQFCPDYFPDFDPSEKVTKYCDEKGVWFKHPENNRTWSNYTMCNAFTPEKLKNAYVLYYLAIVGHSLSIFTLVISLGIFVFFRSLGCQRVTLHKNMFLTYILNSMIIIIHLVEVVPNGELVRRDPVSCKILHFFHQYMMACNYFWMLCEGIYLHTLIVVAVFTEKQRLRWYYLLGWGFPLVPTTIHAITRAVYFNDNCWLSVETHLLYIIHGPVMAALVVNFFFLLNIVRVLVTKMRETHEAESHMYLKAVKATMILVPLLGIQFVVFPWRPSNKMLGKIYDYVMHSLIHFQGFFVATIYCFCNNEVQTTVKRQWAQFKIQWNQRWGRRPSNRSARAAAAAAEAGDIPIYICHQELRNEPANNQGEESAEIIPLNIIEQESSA


Columns and labels:
[1] = biological target: T1, human amylin 3(a) receptor (human …); experiment: cell-based or functional assay
[2] = biological target: T2, human calcitonin receptor; experiment: cell-based or functional assay

| Binder | hAmylin-R funct. EC50 (pM) [1] [pM] | hCTR funct. EC50 (pM) [2] [pM] |
| --- | --- | --- |
| {C20 diacid-γGlu}-EAASELSTAALGRLSAELHELATYPRTETGSGSP-NH2 (SMILES CC(C)C[C@H](NC(=O)[C@H](C)NC(=O)[C@H](C)NC(=O)[C@@H](NC(=O)[C@H](CO)NC(=O)[C@H](CC(C)C)NC(=O)[C@H](CCC(=O)O)NC(=O)[C@H](CO)NC(=O)[C@H](C)NC(=O)[C@H](C)NC(=O)[C@H](CCC(=O)O)NC(=O)CC[C@H](NC(=O)CCCCCCCCCCCCCCCCCCC(=O)O)C(=O)O)[C@@H](C)O)C(=O)NCC(=O)N[C@@H](CCCNC(=N)N)C(=O)N[C@@H](CC(C)C)C(=O)N[C@@H](CO)C(=O)N[C@@H](C)C(=O)N[C@@H](CCC(=O)O)C(=O)N[C@@H](CC(C)C)C(=O)N[C@@H](Cc1c[nH]cn1)C(=O)N[C@@H](CCC(=O)O)C(=O)N[C@@H](CC(C)C)C(=O)N[C@@H](C)C(=O)N[C@H](C(=O)N[C@@H](Cc1ccc(O)cc1)C(=O)N1CCC[C@H]1C(=O)N[C@@H](CCCNC(=N)N)C(=O)N[C@H](C(=O)N[C@@H](CCC(=O)O)C(=O)N[C@H](C(=O)NCC(=O)N[C@@H](CO)C(=O)NCC(=O)N[C@@H](CO)C(=O)N1CCC[C@H]1C(N)=O)[C@@H](C)O)[C@@H](C)O)[C@@H](C)O) [[N-terminal(C20 diacid-gGlu), -1E, 1A, 23Y, 30S, 31G]mimylin] | 17 | 15 |
| {C20 diacid-γGlu}-ASGLSTAALGRLSAELHELATYPRTETGSGSP-NH2 [[N-terminal(C20 diacid-gGlu), des1, 4G, 23Y, 30S, 31G]mimylin] | 38 | 42 |
| {C20 diacid-γGlu}-ASELSTAALGHLSAELHELATLPHTETGSGSP-NH2 (SMILES CC(C)C[C@H](NC(=O)[C@H](C)NC(=O)[C@H](C)NC(=O)[C@@H](NC(=O)[C@H](CO)NC(=O)[C@H](CC(C)C)NC(=O)[C@H](CCC(=O)O)NC(=O)[C@H](CO)NC(=O)[C@H](C)NC(=O)CC[C@H](NC(=O)CCCCCCCCCCCCCCCCCCC(=O)O)C(=O)O)[C@@H](C)O)C(=O)NCC(=O)N[C@@H](Cc1c[nH]cn1)C(=O)N[C@@H](CC(C)C)C(=O)N[C@@H](CO)C(=O)N[C@@H](C)C(=O)N[C@@H](CCC(=O)O)C(=O)N[C@@H](CC(C)C)C(=O)N[C@@H](Cc1c[nH]cn1)C(=O)N[C@@H](CCC(=O)O)C(=O)N[C@@H](CC(C)C)C(=O)N[C@@H](C)C(=O)N[C@H](C(=O)N[C@@H](CC(C)C)C(=O)N1CCC[C@H]1C(=O)N[C@@H](Cc1c[nH]cn1)C(=O)N[C@H](C(=O)N[C@@H](CCC(=O)O)C(=O)N[C@H](C(=O)NCC(=O)N[C@@H](CO)C(=O)NCC(=O)N[C@@H](CO)C(=O)N1CCC[C@H]1C(N)=O)[C@@H](C)O)[C@@H](C)O)[C@@H](C)O) [[N-terminal(C20 diacid-gGlu), des1, 12H, 25H, 30S, 31G]mimylin] | 26 | 12 |
| {C18 diacid-γGlu}-ASQLSTAALGRLSAELHELATLPRTETGSGSP-NH2 (SMILES CC(C)C[C@H](NC(=O)[C@H](C)NC(=O)[C@H](C)NC(=O)[C@@H](NC(=O)[C@H](CO)NC(=O)[C@H](CC(C)C)NC(=O)[C@H](CCC(N)=O)NC(=O)[C@H](CO)NC(=O)[C@H](C)NC(=O)CC[C@H](NC(=O)CCCCCCCCCCCCCCCCC(=O)O)C(=O)O)[C@@H](C)O)C(=O)NCC(=O)N[C@@H](CCCNC(=N)N)C(=O)N[C@@H](CC(C)C)C(=O)N[C@@H](CO)C(=O)N[C@@H](C)C(=O)N[C@@H](CCC(=O)O)C(=O)N[C@@H](CC(C)C)C(=O)N[C@@H](Cc1c[nH]cn1)C(=O)N[C@@H](CCC(=O)O)C(=O)N[C@@H](CC(C)C)C(=O)N[C@@H](C)C(=O)N[C@H](C(=O)N[C@@H](CC(C)C)C(=O)N1CCC[C@H]1C(=O)N[C@@H](CCCNC(=N)N)C(=O)N[C@H](C(=O)N[C@@H](CCC(=O)O)C(=O)N[C@H](C(=O)NCC(=O)N[C@@H](CO)C(=O)NCC(=O)N[C@@H](CO)C(=O)N1CCC[C@H]1C(N)=O)[C@@H](C)O)[C@@H](C)O)[C@@H](C)O) [[N-terminal(C18 diacid-gGlu), des1, 4Q, 30S, 31G]mimylin] | 9 | 11 |

Now from value to binder:

| hAmylin-R funct. EC50 (pM) [1] [pM] | hCTR funct. EC50 (pM) [2] [pM] | Binder |
| --- | --- | --- |
| 33 | 27 | {C20 diacid-γGlu}-ASELSTAALGRLSAELHELSTYPRTETGSGSP-NH2 (SMILES CC(C)C[C@H](NC(=O)[C@H](C)NC(=O)[C@H](C)NC(=O)[C@@H](NC(=O)[C@H](CO)NC(=O)[C@H](CC(C)C)NC(=O)[C@H](CCC(=O)O)NC(=O)[C@H](CO)NC(=O)[C@H](C)NC(=O)CC[C@H](NC(=O)CCCCCCCCCCCCCCCCCCC(=O)O)C(=O)O)[C@@H](C)O)C(=O)NCC(=O)N[C@@H](CCCNC(=N)N)C(=O)N[C@@H](CC(C)C)C(=O)N[C@@H](CO)C(=O)N[C@@H](C)C(=O)N[C@@H](CCC(=O)O)C(=O)N[C@@H](CC(C)C)C(=O)N[C@@H](Cc1c[nH]cn1)C(=O)N[C@@H](CCC(=O)O)C(=O)N[C@@H](CC(C)C)C(=O)N[C@@H](CO)C(=O)N[C@H](C(=O)N[C@@H](Cc1ccc(O)cc1)C(=O)N1CCC[C@H]1C(=O)N[C@@H](CCCNC(=N)N)C(=O)N[C@H](C(=O)N[C@@H](CCC(=O)O)C(=O)N[C@H](C(=O)NCC(=O)N[C@@H](CO)C(=O)NCC(=O)N[C@@H](CO)C(=O)N1CCC[C@H]1C(N)=O)[C@@H](C)O)[C@@H](C)O)[C@@H](C)O) [[N-terminal(C20 diacid-gGlu), des1, 21S, 23Y, 30S, 31G]mimylin] |
| 10 | 6 | {C18 diacid}-EASEISTAIIGRLSAELHEIATLPRTETGPESP-NH2 (SMILES CC[C@H](C)[C@H](NC(=O)[C@H](C)NC(=O)[C@@H](NC(=O)[C@H](CO)NC(=O)[C@@H](NC(=O)[C@H](CCC(=O)O)NC(=O)[C@H](CO)NC(=O)[C@H](C)NC(=O)[C@H](CCC(=O)O)NC(=O)CCCCCCCCCCCCCCCCC(=O)O)[C@@H](C)CC)[C@@H](C)O)C(=O)N[C@H](C(=O)NCC(=O)N[C@@H](CCCNC(=N)N)C(=O)N[C@@H](CC(C)C)C(=O)N[C@@H](CO)C(=O)N[C@@H](C)C(=O)N[C@@H](CCC(=O)O)C(=O)N[C@@H](CC(C)C)C(=O)N[C@@H](Cc1c[nH]cn1)C(=O)N[C@@H](CCC(=O)O)C(=O)N[C@H](C(=O)N[C@@H](C)C(=O)N[C@H](C(=O)N[C@@H](CC(C)C)C(=O)N1CCC[C@H]1C(=O)N[C@@H](CCCNC(=N)N)C(=O)N[C@H](C(=O)N[C@@H](CCC(=O)O)C(=O)N[C@H](C(=O)NCC(=O)N1CCC[C@H]1C(=O)N[C@@H](CCC(=O)O)C(=O)N[C@@H](CO)C(=O)N1CCC[C@H]1C(N)=O)[C@@H](C)O)[C@@H](C)O)[C@@H](C)O)[C@@H](C)CC)[C@@H](C)CC) [[N-terminal(C18 diacid), 5I, 9I, 10I, 20I]mimylin] |
| 37 | 41 | {C20 diacid-γGlu}-ASELSTAALGRLSAELHELATYPRTETGSGAP-NH2 (SMILES CC(C)C[C@H](NC(=O)[C@H](C)NC(=O)[C@H](C)NC(=O)[C@@H](NC(=O)[C@H](CO)NC(=O)[C@H](CC(C)C)NC(=O)[C@H](CCC(=O)O)NC(=O)[C@H](CO)NC(=O)[C@H](C)NC(=O)CC[C@H](NC(=O)CCCCCCCCCCCCCCCCCCC(=O)O)C(=O)O)[C@@H](C)O)C(=O)NCC(=O)N[C@@H](CCCNC(=N)N)C(=O)N[C@@H](CC(C)C)C(=O)N[C@@H](CO)C(=O)N[C@@H](C)C(=O)N[C@@H](CCC(=O)O)C(=O)N[C@@H](CC(C)C)C(=O)N[C@@H](Cc1c[nH]cn1)C(=O)N[C@@H](CCC(=O)O)C(=O)N[C@@H](CC(C)C)C(=O)N[C@@H](C)C(=O)N[C@H](C(=O)N[C@@H](Cc1ccc(O)cc1)C(=O)N1CCC[C@H]1C(=O)N[C@@H](CCCNC(=N)N)C(=O)N[C@H](C(=O)N[C@@H](CCC(=O)O)C(=O)N[C@H](C(=O)NCC(=O)N[C@@H](CO)C(=O)NCC(=O)N[C@@H](C)C(=O)N1CCC[C@H]1C(N)=O)[C@@H](C)O)[C@@H](C)O)[C@@H](C)O) [[N-terminal(C20 diacid-gGlu), des1, 23Y, 30S, 31G, 32A]mimylin] |
| 32 | 29 | {C20 diacid-γGlu}-ASELSTAALGRLSAELHELATYPRTETGSGSY-NH2 (SMILES CC(C)C[C@H](NC(=O)[C@H](C)NC(=O)[C@H](C)NC(=O)[C@@H](NC(=O)[C@H](CO)NC(=O)[C@H](CC(C)C)NC(=O)[C@H](CCC(=O)O)NC(=O)[C@H](CO)NC(=O)[C@H](C)NC(=O)CC[C@H](NC(=O)CCCCCCCCCCCCCCCCCCC(=O)O)C(=O)O)[C@@H](C)O)C(=O)NCC(=O)N[C@@H](CCCNC(=N)N)C(=O)N[C@@H](CC(C)C)C(=O)N[C@@H](CO)C(=O)N[C@@H](C)C(=O)N[C@@H](CCC(=O)O)C(=O)N[C@@H](CC(C)C)C(=O)N[C@@H](Cc1c[nH]cn1)C(=O)N[C@@H](CCC(=O)O)C(=O)N[C@@H](CC(C)C)C(=O)N[C@@H](C)C(=O)N[C@H](C(=O)N[C@@H](Cc1ccc(O)cc1)C(=O)N1CCC[C@H]1C(=O)N[C@@H](CCCNC(=N)N)C(=O)N[C@H](C(=O)N[C@@H](CCC(=O)O)C(=O)N[C@H](C(=O)NCC(=O)N[C@@H](CO)C(=O)NCC(=O)N[C@@H](CO)C(=O)N[C@@H](Cc1ccc(O)cc1)C(N)=O)[C@@H](C)O)[C@@H](C)O)[C@@H](C)O) [[N-terminal(C20 diacid-gGlu), des1, 23Y, 30S, 31G, 33Y]mimylin] |
